Tests used:
[1] = molecular target: RaTG13 receptor-binding domain (Bat coronavirus RaTG13, UniProt A0ABF7PLN6)
[2] = molecular target: SARS-CoV-1 receptor-binding domain (SARS-CoV (SARS-CoV-1), isolate not …, UniProt P59594)
[3] = molecular target: T1, SARS-CoV-2 receptor-binding domain (SARS-CoV-2, UniProt P0DTC2)
[4] = molecular target: T1, SARS-CoV-2 receptor-binding domain; assay: cell-based or functional assay

B1: AB-3545 (antibody, V domains shown)
VH: QVQLQESGPGLVKPSETLSLTCAVSGGSISNYHWNWIRQPPGKGLEWIGYIYYSGRTNYNPTLKSRVNISVDTSKNQFSLKLSSVTAADTAVYYCAREMRRGYSGYDDWDLYAFDIWGQGTMVTVSS
VL: DIQLTQSPSFLSTYVGDRVTITCRASQGISTYLAWYQQKPGKAPKLLIYAAFTLQSGVPSRFSGSGSGTEFTLTISSLQPEDFATYYCQQLNSYPHTFGQGTKLEIK
Q: What does the source list for B1?
A: binding result [1]: binds; binding result [2]: binds; binding result [3]: binds

B2: 3573 (antibody, V domains shown)
VH: QVLLQESGPGLVKPSETLSLTCAVSGGSISSYYWSWIRQPPGKGLEWIGYIYYSGRTNYNSSLKSRVTISVDTSKNQFSLKLSSVTAADTAVYYCAREMRRGYSGYDDWDLYAFDIWGQGTMVTVSS
VL: DIQLTQSPSFLSTSVGDRVTITCRASQGISSYLAWYQQKPGKAPKLLIYAASTLQSGVPSRFSGSGSGTDFTLTISSLQPEDFATYYCQQLNSYPHTFGQGTKLEIK
Q: Which results are given for B2?
A: binding result [1]: binds; binding result [2]: binds; binding result [3]: binds

B3: AB-3492 (antibody, V domains shown)
VH: QVQLQESGPGLVKPSETLSLTCAVSGGSISSYYWNWIRQPPGKGLEWIGYIYYSGRTNYNPSLKSRVTISVDTSKNQFSLKLSSVTAADTAVYYCAREMRRGYSGYDDWDLYAFDIWGQGTMVTVSS
VL: DIQLTQSPSFLSTSVGDRVTITCRASQGISSYLAWYQQKPGKAPKLLIYAASTLQSGVPSRFSGSGSGTEFTLTISSLQPEDFATYYCQQLNSYPHTFGQGTKLEIK
Q: Does B3 bind [1]?
A: binds

Q: Does B3 bind [2]?
A: binds

Q: Does B3 bind [3]?
A: binds

B4: 3475 (antibody, V domains shown)
VH: QVQLQESGPGLVKPSETLSLTCTVSGDSISSYHWNWIRQPPGKGLEWIGYIYYSGSTNYNPSLKSRVTISVHTSKNQFSLRLSSVTAADTAVYYCAKEMRRGYSGYDYWDLYAFDIWGQGTMVTVSS
VL: DIQLTQSPSFLSASVGDRVTVTCRASQGISSYLAWYQQKPGKAPKLLIYAASTLQSGVPSRFSGSGSGTEFTLTISSLQPEDFATYYCQQLNSYPHTFGQGTKLEIK
Q: Which results are given for B4?
A: binding result [1]: binds; binding result [2]: binds; binding result [3]: binds

B5: 3476 (antibody, V domains shown)
VH: QVQLQESGPGLVKPSETLSLTCAVSGGSISSYYWSWIRQPPGKGLEWIGYIYYSGRTNYNPSLKSRVTISVDTSKNQFSLKLSSVTAADTAVYYCAREMRRGYSGYDDWDLYAFDIWGQGTMVTVSS
VL: DIQLTQSPSFLSTSIGDRVTITCRASQGISSYLAWYQQKPGKAPNLLIYAASTLQSGVPSRFSGSGSGTEFTLTISSLQPEDFATYYCQQLNSYPHTFGQGTKLEIK
Q: What does the source list for B5?
A: binding result [1]: binds; binding result [2]: binds; binding result [3]: binds

B6: 3513 (antibody, V domains shown)
VH: QVQLQESGPGLVKPSETLSLTCTVTGGSINNYFWSWIRQPPGKGLEWIGNIYYSGNTIYNPSLKSRVTLSIDTSKNQFSLRLTSVTAADTAVYYCAREMRRGYSGYDYWDLYAFDVWGQGTMVTVSS
VL: DIQLTQSPSFLSASVQDRVTITCRASQDISSYLAWYQQKPGKAPKLLIYAASTLQSGVPSRFSGSGSGTEFTLTISSLQPEDFATYYCQQLNSYPHTFGQGTKLEIK
Q: Does B6 bind [1]?
A: binds

Q: Does B6 bind [2]?
A: binds

Q: Does B6 bind [3]?
A: binds

B7: 3606 (antibody, V domains shown)
VH: QVQLQESGPGLVKPSETLSLTCAVSGGSISSYYWSWIRQPPGKGLEWIGYIYYSGRTNYNSSLKSRVTISVDTSKNQFSLKLSSVTAADTAVYYCAREMRRGYSGYDDWDLYAFDIWGQGTMVTVSS
VL: DIQLTQSPSFLSTSVGDRVTITCRASQGISSYLAWYQQKPGKAPKLLIYAASTLQSGVPSRFSGSGSGTDFTLTISSLQPEDFATYYCQQLNSYPHTFGQGTKLEIK
Q: Does B7 bind [1]?
A: binds

Q: Does B7 bind [2]?
A: binds

Q: Does B7 bind [3]?
A: binds

B8: 3581 (antibody, V domains shown)
VH: QVQLQESGPGLVKPSETLSLTCTVSGGSISTYYWSWTRQPPGKGLEWIGNIYYSGSTIYNPSLKSRVTISVDTSKNQFSLKLTSVTAADTAVYYCAREMRRGYSGYDYWDLYAFDIWGQGTMVTVSS
VL: DIQLTPSPSFLSASVGDRVTITCRASQGISSYLAWYQQTPGKAPKLLIYAASTLQSGVPSRFSGSGSGTEFTLTISSLQPEDFATYYCQQLNSYPHTFGQGTKLEIK
Q: What does the source list for B8?
A: binding result [1]: binds; binding result [2]: binds; binding result [3]: binds

B9: 3881 (antibody, V domains shown)
VH: QVQLQGSGPGLVKPSETLSLTCTVSGGSISSYYWTWIRQPPGKGLEWIGYIYYSGITTYNPSLKSRITISVDTSKNQFSLKLRSVTAADTAVYYCAREMRRGYSGYDYWDLYPFDIWGQGTMVTVSS
VL: DIQLTQSPSFLSASVGDRVTITCRASQGISSYLAWYQQKPGKAPKLLIYSASTLQSGVPSKFSGSGSGTEFTLTISSLQPEDFATYYCQQLNSYPHTFGQGTKLEIK
Q: Does B9 bind [1]?
A: binds

Q: Does B9 bind [2]?
A: binds

Q: Does B9 bind [3]?
A: binds

B10: AB-3571 (antibody, V domains shown)
VH: QVQLQESGPGLVKPSETLSLTCAVSGGSISSYHWNWIRQPPGKGLEWIGYIYYSGRTNYNPTLKSRVNISVDTSKNQFSLKLSSVTAADTAVYYCAREMRRGYSGYDYWDLYAFDIWGQGTMVTVSS
VL: DIQLTQSPSFLSTSVGDRVTITCRASQDISTYLAWYQQKPGKAPKLLIYAASTLQSGVPSRFSGSGSGTEFTLTISSLQPEDFVTYYCQQLNSYPHTFGQGTKLEIK
Q: Does B10 bind [1]?
A: binds

Q: Does B10 bind [2]?
A: binds

Q: Does B10 bind [3]?
A: binds

B11: 3645 (antibody, V domains shown)
VH: QVQLQESGPGLVKPSETLSLTCAVSGGSISSYYWSWIRQPPGKGLEWIGYIYYSGRINYNPSLKSRVTISVDTSKNQFSLKLSSVTAADTAVYYCAREMRRGYSGYDDWDLYAFDIWGQGTMVTVSS
VL: DIQLTQSPSFLSTSVGDRVTITCRASQGISSYLAWYQQKPGKAPKLLIYAASTLQSGVPSRFSGSGSGTEFTLTISSLQPEDFATYYCQQLNSYPHTFGQGTKLEIK
Q: Does B11 bind [1]?
A: binds

Q: Does B11 bind [2]?
A: binds

Q: Does B11 bind [3]?
A: binds

B12: 3517 (antibody, V domains shown)
VH: QVQLQESGPGLVKPSETLSLTCTVSGGSISSYHWNWIRQPPGKGLEWIGYIYYSGSTNYNPSLKSRVSISVDTSKNQFSLKLSSVTAADTAVYYCAREMRRGYSGYDYWDLYAFDIWGQGTMVTVSS
VL: DIQLTQSPSFLSASVRDRVTITCRASQDISSYLAWYQQKPGKAPKLLIYAASTLQSGVPSRFSGSGSGTEFTLTISSLQPEDFATYYCQQLNNYPHTFGQGTKLEIK
Q: What does the source list for B12?
A: binding result [1]: binds; binding result [2]: binds; binding result [3]: binds

B13: 3521 (antibody, V domains shown)
VH: QVQLQESGPGLVKPSETLSLTCTVSGGSISSYHWSWIRQPPGKGLEWIGYIYYSGSTIYNPSLKSRVSISVDTSQNQFSLKLSSVTAADTAVYYCAREMPRGYSGYDYWDLYAFDIWGQGTMVTVSS
VL: DIQLTQSPSFLSASVRDRVTITCRASQGISSYLAWYQQKPGKAPKLLIYAASTLQSGVPSRFSGSGSGTEFTLTISSLQPEDFATYYCQQLNNYPHTFGQGTKLEIK
Q: Does B13 bind [1]?
A: binds

Q: Does B13 bind [2]?
A: binds

Q: Does B13 bind [3]?
A: binds

B14: 3577 (antibody, V domains shown)
VH: QVQLQESGPGLVKPSETLSLTCTVSGGSISSYHWNWIRQPPGKGLEWIGYIYYSGNTNYNPSLKSRVSISADTSKNQFSLKLSSVTAADTAVYYCAREMRRGYSGYDYWDLYAFDIWGQGTMVTVSS
VL: DIQLTQSPSFLSASVGDRVTITCRASQGISSYLAWYQQKPGKAPKLLIYTASTLQSGVPSRFSGSGSGTEFTLTISSLQPEDFATYYCQQLNSYPHTFGQGTKLEIK
Q: Which results are given for B14?
A: binding result [1]: binds; binding result [2]: binds; binding result [3]: binds

B15: 3636 (antibody, V domains shown)
VH: QVQLQESGPGLVKPSETLSLTCTVSGGSISSYHWNWIRQPPGKGLEWIGYIYYSGSTNYNPSLKSRVSISVDTSKNQFSLKLSSVTAADTAVYYCAREMRRGYSGYDYWDLYAFDIWGQGTMVTVSS
VL: DIQLTQSPSFLSASVRDRVTITCRASQGISSYLAWYQQKPGKAPKLLIYAASTLQSGVPSRFSGSGSGTEFTLTISSLQPEDFATYYCQQLNNYPHTFGQGTKLEIK
Q: Does B15 bind [1]?
A: binds

Q: Does B15 bind [2]?
A: binds

Q: Does B15 bind [3]?
A: binds

B16: 3490 (antibody, V domains shown)
VH: QVQLQESGPGLVKPSETLSLTCAVSGGSISSYYWSWIRQPPGKGLEWIGYIYYSGRTNYNPSLKSRVTISVDTSKNQFSLKLSSVTAADTAVYYCAREMRRGYSGYDDWDLYAFDIWGQGTMVTVSS
VL: DIQLTQSPSFLSTSVGDRVTITCRASQGISSYLAWYQQKPGKAPKLLIYAASTLQSGVPSRFSGSGSGTEFTLTISSLQPEDFATYYCQQFNSYPHTFGQGTKLEI
Q: Does B16 bind [1]?
A: binds

Q: Does B16 bind [2]?
A: binds

Q: Does B16 bind [3]?
A: binds

B17: AB-1987, expressed as human IgG1 (antibody, V domains shown)
VH: QVQLVESGGGVVQPGRSLRLSCAASGFTFSSYGMHWVRQAPGKGLEWAAVIWYDGSNKYYADSVKGRFTISRDNSKNTLYLQMNSLRAEDTAVYYCARESSGGFDYWGQGTLVTVSS
VL: NIQMTQSPSAMSASVGDRVTITCRARQGISNFLAWFQQKPGKVPKHLVYAASSLRSGVPSRFSGSGSGTEFTLTISSLQPEDFATYYCLQHNNYPYTFGQGTKLEIK
Q: B17 was tested. Which “neutralization of live CoV2 virus, Vero E6 cells (blocks RBD-ACE2)” value [4] did it give?
A: 0.054 µg/mL

B18: AB-2126, expressed as human IgG1 (antibody, V domains shown)
VH: QVQLVESGGGVVQPGRSLRLSCAASGFTFSSYGIHWVRQAPGKGLEWVAVIWYDGSNKYYADSVKGRFTISRDNSKNTLYLQMNSLRAEDTAVYYCARETLDGMDVWGQGTTVTVSS
VL: NIQMTQSPSAMSASVGDRVTITCRARQGISNYLAWFQQKPGKVPKHLIYAASSLLSGVPSRFSGSGSGTEFTLTIRSLQPEDFATYYCLQHNSYPYTFGQGTKLEIK
Q: B18 was tested. Which “neutralization of live CoV2 virus, Vero E6 cells (blocks RBD-ACE2)” value [4] did it give?
A: 0.106 µg/mL

Reference: PMC8554075 (Immunity, 2021)
